Consider two molecules from article PMC4930772, “Crystal structure of a PP2A B56-BubR1 complex and its implications for PP2A substrate recruitment and localization” (Protein & Cell, 2016).

The experiment concerns the target human PP2A B56γ1(30–380) (human, UniProt Q13362-2 30-380). The experiment can be described thus: ITC; B56γ1 in the cell at 0.03 mmol/L, BubR1 protein or peptide at 0.7 mmol/L injected (20 x 1.5 µL); room temperature; 20 mmol/L Tris-HCl pH 8.0, 200 mmol/L NaCl; one-site model. Particulars: both partners purified. Background: In ITC the heat of successive injections is recorded.

A word on the Kd: it is a measure of binding affinity in units of concentration. Low values mean a tighter complex, high ones a looser complex. What is called stoichiometry N is a count of units in the complex or per binding partner.

Changes are numbered by the printed parent chain. In names and notes the source's numbering stands.

B1: human BubR1(647–720)-3D (S670D/S676D/T680D) (domain or fragment)
chain: KTSEDQQTACGTIYSQTLSIKKLDPIIEDDREADHSSGFSGSSASVASTSSIKCLQIPEKLELTNETSENPTQS
notes: also called BubR1-3D; source: E. coli BL21 (DE3), purified (Glutathione Sepharose 4B, TEV cleavage, Hitrap Q HP)
Take B1: binding was put at a Kd of 2.27 ± 0.37 µM, the dH is -28.4 ± 0.83 kcal/mol and the “stoichiometry N” value was found to be 1.02 ± 0.02.

B2: human BubR1(647–720; E678A/T680A/H681A) (domain or fragment)
chain: B1 chain with D24S, D30S, E32A, D34A, H35A
notes: also called BubR1-AAAA; source: E. coli BL21 (DE3), purified the same way as wild type
B2: the Kd worked out at 10.6 ± 1.72 µM, the dH was -9.74 ± 0.64 kcal/mol and the “stoichiometry N” value was found to be 1.02 ± 0.05.
